Assay results as given in paper PMC3360202.

Key:
P1MYB (N6His-ZmP1MYB) [1] = molecular target: T1, P1MYB (N6His-ZmP1MYB) (Zea mays, UniProt P27898 9-116); assay: competition
P1MYB (N6His-ZmP1MYB) [2] = molecular target: T1, P1MYB (N6His-ZmP1MYB); assay: EMSA
P1MYB (N6His-ZmP1MYB) [3] = molecular target: T1, P1MYB (N6His-ZmP1MYB); assay: EMSA; remark: listed apart in the source

T1 sequence (P27898 9-116): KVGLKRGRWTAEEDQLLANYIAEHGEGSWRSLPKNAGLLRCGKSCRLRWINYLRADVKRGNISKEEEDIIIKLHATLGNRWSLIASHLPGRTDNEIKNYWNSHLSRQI

B1: comp1 (dsDNA)
DNA 1: CTATTACTCGTTAGTTGGATTTTAGTTT
DNA 2: AAACTAAAATCCAACTAACGAGTAATAG
binding result (P1MYB (N6His-ZmP1MYB) [1]): binds

B2: comp2 (dsDNA)
DNA 1: CCAAGTCAAAATCCAACCATTATCTCTTGA
DNA 2: TCAAGAGATAATGGTTGGATTTTGACTTGG
binding result (P1MYB (N6His-ZmP1MYB) [1]): binds

B3: comp3 (dsDNA)
DNA 1: TAGATGTGATTCGTTAGGTGTGTTTTTATAA
DNA 2: TTATAAAAACACACCTAACGAATCACATCTA
binding result (P1MYB (N6His-ZmP1MYB) [1]): binds

B4: FLSbind (dsDNA)
DNA 1: GAGTTTCTGGTAGGTGCGTCGTACGGCCAG
DNA 2: CTGGCCGTACGACGCACCTACCAGAAACTC
binding result (P1MYB (N6His-ZmP1MYB) [2]): binds

B5: APB1 (dsDNA)
DNA 1: GATCCGGGTCAGTGTACCTACCAACCTTAAACAC
DNA 2: GATCGTGTTTAAGGTTGGTAGGTACACTGACCCG
binding result (P1MYB (N6His-ZmP1MYB) [3]): binds
